Source: PMC8043444 (bioRxiv, 2021)

B1: S2D106 IgG1 (LS) (antibody, V domains shown)
VH: EVQLVQSGAEVKKPGSSVKVSCKASGGPFSSSAISWVRQAPGQGLEWMGGIIPMVGTANYAQKFQGRVTITADESTSTAYMELSSLRSEDTAVYYCARDSRYCSGGSCYSVWFDPWGQGTLVTVSS
VL: not shown
B2: S2D106 Fab (Fab, V domains shown)
VH: EVQLVQSGAEVKKPGSSVKVSCKASGGPFSSSAISWVRQAPGQGLEWMGGIIPMVGTANYAQKFQGRVTITADESTSTAYMELSSLRSEDTAVYYCARDSRYCSGGSCYSVWFDPWGQGTLVTVSS
VL: not shown
B3: S304 IgG1 (LS) (antibody, V domains shown)
VH: EVQLVESGGGLVQPGGSLRLSCAASGFTFSSYDMHWVRQTTGKGLEWVSTIGTAGDTYYPDSVKGRFTISREDAKNSLYLQMNSLRAGDTAVYYCARGDSSGYYYYFDYWGQGTLLTVSS
VL: DIEMTQSPSSLSAAVGDRVTITCRASQSIGSYLNWYQQKPGKAPKLLIYAASSLQSGVPSRFSGSGSGTDFTLTISSLQPEDFAIYYCQQSYVSPTYTFGPGTKVDIK
B4: S2E12 IgG1 (LS) (antibody, V domains shown)
VH: not shown
VL: DIVLTQTPGTLSLSPGERATLSCRASQSVSSSYLAWYQQKPGQAPRLLIYGASSRATGIPDRFSGSGSGTDFTLTISRLEPEDFAVYYCQQYVGLTGWTFGQGTKVEIK
B5: S2H97 IgG1 (LS) (antibody, V domains shown)
VH: QVRLVQSGAEVKKSGESLKISCKGSGYSFTSYWIGWVRQMPGKGLEWMGIIYPGDSDTRYSPSFQGQVTISADKSISTVYLQWSSLKASDTAMYYCARQWSHYTYDYYYWGQGTLVTISS
VL: QSVLTQPASVSGSPGQSITISCTGISSDVGGYNSVSWYQQHPGKAPKLMIYDVTNRPSGVSNRFSGSKSGNTASLTISGLQAEDEADYYCSSYTSSSTPPYVFGTGTKVSVL
B6: S2H97 Fab (Fab, V domains shown)
VH: QVRLVQSGAEVKKSGESLKISCKGSGYSFTSYWIGWVRQMPGKGLEWMGIIYPGDSDTRYSPSFQGQVTISADKSISTVYLQWSSLKASDTAMYYCARQWSHYTYDYYYWGQGTLVTISS
VL: QSVLTQPASVSGSPGQSITISCTGISSDVGGYNSVSWYQQHPGKAPKLMIYDVTNRPSGVSNRFSGSKSGNTASLTISGLQAEDEADYYCSSYTSSSTPPYVFGTGTKVSVL
B7: S2X35 IgG1 (LS) (antibody, V domains shown)
VH: QVQLVQSGAEVKKPGASVKVSCKASGYTFTNYGISWVRQAPGQGLEWMGWISAYKGNTNYAQKLQGRVTMTTDTSTSTAYMELRSLRSDDTAVYYCARPDYQVLGYDFWIGYYGMDVWGQGTTVIVSS
VL: QSVLTQPPSVSGAPGQRVTISCTGSSSNIGAGYDVHWYQQLPGTAPKLLIYGNTNRPSGVPDRFSGSKSGTSASLAITGLQAEDEADYYCQSYDSSLSGSEVVFGGGTKLTVL
B8: S2X259 Fab (Fab, V domains shown)
VH: QVQLVQSGAEVKKPGSSVKVSCKASGGIFNTYTISWVRQAPGQGLEWMGRIILMSGMANYAQKIQGRVTITADKSTSTAYMELTSLRSDDTAVYYCARGFNGNYYGWGDDDAFDIWGQGTLVTVYS
VL: QTVLTQPPSVSGAPGQRVTISCTGSNSNIGAGYDVHWYQQLPGTAPKLLICGNSNRPSGVPDRFSGSKSGTSASLAITGLQAEDEADYYCQSYDSSLSGPNWVFGGGTKLTVL

Key:
[1] = target: T1, SARS-CoV-2 RBD WT for SPR binding assays (SARS-CoV-2, UniProt P0DTC2); test: SPR
[2] = target: T1, SARS-CoV-2 RBD WT for SPR binding assays; test: cell-based or functional assay
[3] = target: SARS-CoV-2 RBD WT for crystallization (SARS-CoV-2, UniProt P0DTC2, deglycosylated by overnight incubation with EndoH glycosidase); test: crystal structure

| Binder | Kd [1] | neutralisation of authentic SARS-CoV-2-Nluc on Vero E6 cells (IF/luc), IC90 [2] | binding result [3] |
| --- | --- | --- | --- |
| B1 | 0.04 nM | 23.6 |  |
| B2 | 0.05 nM |  |  |
| B3 | 0.4 nM |  |  |
| B4 | 0.7 nM | 14 |  |
| B5 | 0.04 nM | 3290 |  |
| B6 | 0.03 nM |  |  |
| B7 | 0.06 nM | 592 |  |
| B8 |  |  | binds |
